Measured values reported in US20230303681A1 (published 2023).
Several values for one entry are separate records, joined by “and”; a condition that tells them apart may be missing. Identical values can stand only once.

What was measured:
human TMEM106B [1] = target: T1, human TMEM106B (human, UniProt Q9NUM4 2-274); assay: FACS A549
T1 construct: Full-length, on transiently transfected HEK293 cells, or natively expressed on HeLa, U251 and A549 cells; also called huTMEM106B; huTMEM

human TMEM106B [2] = target: T1, human TMEM106B; assay: FACS HeLa;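 further: flow cytometry of cells incubated with hybridoma supernatant or purified antibody at 10 µg/ml for 1 h on ice, propidium iodide–positive dead cells gated out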
Protocol: (§1) All cells were cultured in either T75 or T150 flasks. […] The enzyme was quenched by addition of fresh media, and the cells were then distributed into 96-well plates for FACS analysis.
(§2) FACS analysis was performed as follows. Each cell type was aliquoted in 96-well round bottom plates (2x10^5 cells per well), washed once with FACS buffer (PBS + 2% FBS + 1 mM EDTA), and incubated with 50 µL of hybridoma supernatant or purified antibody (10 µg/ml in FACS buffer) on ice for 1 hour. […] Following this secondary incubation, the cells were again washed 2x with ice-cold FACS buffer and resuspended in a final volume of 50 µL of FACS buffer + 0.25 µl/well propidium iodide (Fisher Scientific # BDB556463). Analysis was performed on a FACSCanto system (BD Biosciences) or iQue (Intellicyt), with sort gates drawn to exclude dead (i.e., propidium iodide positive) cells.
(§3) Data is presented as mean fluorescence intensity (MFI).

human TMEM106B [3] = target: T1, human TMEM106B; assay: FACS U251;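 further: flow cytometry of cells exposed to antibody (purified at 10 µg/mL, or hybridoma supernatant) for 1 h on ice, with propidium iodide-positive dead cells gated out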
Protocol: as §1, §2, §3

mouse TMEM106B [4] = target: T2, mouse TMEM106B (mouse, UniProt Q80X71 2-275); assay: FACS Neuro2a;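 further: flow cytometry of cells stained with antibody or hybridoma supernatant (purified antibody at 10 µg/ml) for 1 h on ice, propidium iodide–positive dead cells gated out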
T2 construct: on transiently transfected HEK293 cells, or natively expressed on mouse Neuro2a cells; also called moTMEM106B; murine TMEM106B
Protocol: as §1, §2, §3

GST (Pierce) = target: T3, GST (Pierce) (UniProt P08515 1-218 = GST, limits assumed); assay: ELISA, coated GST;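 further: ELISA on plates coated with GST alone at 1-10 µg/ml, antibodies applied at 100-1000x dilution, bound antibody detected by peroxidase substrate colour after acid stop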
T3 construct: control for the GST part of the fusion protein; also called GST protein; Glutathione-S-transferase
Protocol: Briefly, 96-well polystyrene plates were coated with 1-10 µg/ml of recombinant GST-TMEM106B-truncated protein or GST (Pierce) in PBS either at 370 Cfor 1-4 hours or overnight at 4 °C. Coated plates were then blocked with 5% BSA for 1-hour, washed 3×150 µL in TBST (Tris-buffered saline + 0.1% Tween20), and then the antibodies were added at various dilutions (100-1000x) in PBS. After 1-hour incubation (room temperature, with shaking), the plates were washed 3x150 µL in TBST. […] After a final set of washes (3×150µL in TBST), 100 µL of peroxidase substrate was added for 1 minute; the reaction was then quenched with 2N sulfuric acid (100 µL).

human TMEM106B [5] = target: T1, human TMEM106B; assay: FACS A549, 1 ug/ml
Protocol: (§4) Purified anti-TMEM106B antibodies were evaluated for their binding affinity to various TMEM106B-expressing cell lines including HEK293 transiently transfected with human/cyno/mouse TMEM106B, as well as HeLa cells and A549 cells. Antibodies tested for this experiment were mouse IgGs purified from hybridoma supernatant. Affinity binding to cells was determined as follows. Briefly, 1x10^5 cells were aliquoted per well in 96-well round bottom plates and incubated with 50 µL of purified anti-TMEM106B antibody at various concentrations (10x dilutions starting at 10 µg/ml) in FACS buffer (PBS + 2% FBS + 1 mM EDTA). […] Sorting was performed on a iQue (Intellicyt), with sort gates drawn to exclude dead (propidium iodide +) cells. Binding data was analyzed using median fluorescent intensity (MFI) and graphed in Prism. Values presented are MFI.

human TMEM106B [6] = target: T1, human TMEM106B; assay: FACS A549, 10 ug/ml
human TMEM106B [7] = target: T1, human TMEM106B; assay: FACS, HEK293 transfectants;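 on fold over negative controls: hybridoma supernatants incubated 30 min on ice with human TMEM106B-expressing HEK293 cells, binding read as anti-mouse-APC median fluorescence on live cells, relative to secondary-antibody-only wells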;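 on fold-change over parental HEK293: flow cytometry binding of hybridoma supernatants to HEK293 cells transiently expressing human, cyno or mouse TMEM106B, read as anti-mouse-APC median fluorescence, live cells only, 30 min on ice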
Protocol: Initial screening of the anti-TMEM106B hybridomas was performed as follows.
For screening of the hybridoma cell culture supernatants, humanTMEM106B-transfected HEK293 cells were aliquoted in 96-well round bottom plates (2x10^5 cells per well) and incubated with 50 µL of hybridoma cell culture supernatant on ice for 30 minutes. […] Cell sorting was performed on a FACS Canto system (BD Biosciences) or iQue (Intellicyt), with sort gates drawn to exclude dead (i.e., propidium iodide-positive) cells. Median fluorescence intensity (MFI) of anti-mouse-APC MFI on TMEM106B+ HEK293 cells was calculated for each clone, and those displaying a signal of at least 2-fold over background compared to a secondary-antibody only well were taken forward for further analysis and characterization.

[8] = target: T4, GST-fusion human TMEM106B truncated (human); assay: array SPR, Ab immobilised;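 further: antibodies amine-coupled on an MX-96 chip, antigen flowed at 500 nM top concentration in 5-fold serial dilutions, GST alone run as nonspecific-binding control, duplicate measurements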
T4 construct: also called GST-TMEM106B-truncated protein; GST-TMEM106B (truncated)
Protocol: Binding kinetic characterization of the purified antibodies was performed by Carterra using a proprietary array SPR instrument (MX-96) as follows. Briefly, antibodies were prepared by diluting to 5 µg/ml in 10 mM Acetate, pH 4.5 (Carterra), at 150 µL/well and then made an additional dilution at 1:10 from there by titrating 11 µl into 100 µL. […] The chip was activated with 18 mM EDC (Sigma Bioxtra) and 4.5 mM S-NHS (Thermo Fisher) diluted in 100 mM MES, pH 5.5, for 7 minutes, and then antibodies were coupled for 10 minutes at 45 µL/minute. After coupling, the chip was returned to the MX-96 and quenched for 7 minutes using 1 M Ethanolamine pH 8.5 (Carterra).
Printed antibodies were profiled for their ability to bind GST-TMEM106B (truncated) protein (described above). Briefly, GST-TMEM106B (truncated) antigen was diluted to 18 µg/ml (500 nM of 36 kDa fusion protein) by mixing 2.7 µL of 2.0 mg/ml antigen into 298 µL Running buffer (HBS-EP+, Teknova with 1 mg/ml BSA, Sigma), and titrated 50 µl into 200 µl for 5-fold serial dilutions. In addition, binding to GST (Pierce) was assayed under the same conditions to determine the extent of any nonspecific binding of the anti-TMEM106B antibodies to GST portion of the TMEM106B-GST fusion protein. Duplicate measurements for each anti-TMEM106B antibody were taken to ensure reproducibility.

human TMEM106B [9] = target: T1, human TMEM106B; assay: FACS HEK+huTMEM, 10 ug/ml;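 further: purified mouse IgG antibodies at 10 µg/ml bound to HEK293 cells transiently expressing human TMEM106B, measured by flow cytometry as median fluorescence intensity of propidium iodide negative live cells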
Protocol: as §4

human TMEM106B [10] = target: T1, human TMEM106B; assay: FACS, HEK293 transfectants; remark: listed apart in the source;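 on fold over negative controls: hybridoma supernatants incubated 30 min on ice with human TMEM106B-expressing HEK293 cells, binding read as anti-mouse-APC median fluorescence on live cells, relative to secondary-antibody-only wells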;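 on fold-change over parental HEK293: flow cytometry binding of hybridoma supernatants to HEK293 cells transiently expressing human, cyno or mouse TMEM106B, read as anti-mouse-APC median fluorescence, live cells only, 30 min on ice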
[11] = target: T5, cynomolgus (cyno) TMEM106B (cynomolgus, UniProt Q9NUM4 2-274 (human entry)); assay: FACS, HEK293 transfectants;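 further: flow cytometry binding of hybridoma supernatants to HEK293 cells transiently expressing human, cyno or mouse TMEM106B, read as anti-mouse-APC median fluorescence, live cells only, 30 min on ice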
T5 construct: on transiently transfected HEK293 cells

mouse TMEM106B [12] = target: T2, mouse TMEM106B; assay: FACS, HEK293 transfectants;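 further: flow cytometry binding of hybridoma supernatants to HEK293 cells transiently expressing human, cyno or mouse TMEM106B, read as anti-mouse-APC median fluorescence, live cells only, 30 min on ice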
human TMEM106B [13] = target: T1, human TMEM106B; assay: FACS HEK+huTMEM, 0.1 ug/ml;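 further: flow cytometry binding of purified mouse IgG antibodies to HEK293 cells transiently expressing TMEM106B, read as median fluorescence intensity with propidium iodide positive dead cells gated out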
Protocol: as §4

human TMEM106B [14] = target: T1, human TMEM106B; assay: FACS HEK+huTMEM, 1.0 ug/ml
human TMEM106B [15] = target: T1, human TMEM106B; assay: FACS HEK+huTMEM, 0.01 ug/ml

Row | Binder | MFI (human TMEM106B [1]) | MFI (human TMEM106B [2]) | MFI (human TMEM106B [3]) | MFI (mouse TMEM106B [4]) | binding result (GST (Pierce)) | MFI (human TMEM106B [5]) | MFI (human TMEM106B [6]) | fold over negative controls (human TMEM106B [7]) [fold] | Kd [8] | koff [8] | kon [8] | MFI (human TMEM106B [9]) | fold-change over parental HEK293 (human TMEM106B [10]) [fold] | fold-change over parental HEK293 [11] [fold] | fold-change over parental HEK293 (mouse TMEM106B [12]) [fold] | MFI (human TMEM106B [13]) | MFI (human TMEM106B [14]) | MFI (human TMEM106B [15])
1 | anti-TMEM106B antibody TM-28 (antibody, V domains shown) VH: EVQLQQSGPVLVKPGPSVKISCMASVFTFNDYYIHWVKQSHGKSLEWIGLVYPYNGGTNYNQNFKGKATLTVDTSSRTAYMELNSLTSEDSAVYYCARSYFSNPIGYWGQGTLVTVSE VL: DIVMTQSPSSLSVSVGEKVTVSCKSSQSLLNSGNQKNYLAWYQQKPGQPPKLLIYGASTRESGVPDRFTGSGSGTDFTLTISSVQAEDLAVYYCQNDHSYPLTFGAGTKLELK | 2000 | 2790 | 998 | 2740 | no binding | 2630 | 4350 | > 2 | 5.3 nM | 7.2e-05 s⁻¹ | 14000 M⁻¹ s⁻¹ | 64800 | 19.7 | 33.7 | 22.1 | 19800 | 66400 | 3340
2 | anti-TMEM106B antibody TM-7 (antibody, V domains shown) VH: EVQLQQSGPVLVKPGPPVKISCKASGFTFTDYYIHWVKLSHGKSLEWIGLVYPYNGDTDYNQKFKGKATLTVDTSSSTAYMELNSLTSEDSAVYYCARTYYANSPDYWGQGTTVTVSS VL: DIVMTQSPSSLSVSAGEKVTMSCKSSQSLLNSGNQRNYLAWYQQKPGQPPKLLIYGASTRESGVPDRFTGSGSGTDFTLTISNVQAEDLAVYYCQNDHSYPLTFGAGTKLELK | 647 | 1070 | 442 | 1200 | no binding | 883 | 1810 | > 2 | – | – | 9900 M⁻¹ s⁻¹ and 10000 M⁻¹ s⁻¹ | 40800 | 17.5 | 47.5 | 15.5 | 9870 | 40000 | 1670
3 | anti-TMEM106B antibody TM-5 (antibody, V domains shown) VH: QVQLQQSGTELARPGASVKVSCKASGYIFTTYGITWVKQRGGQGLEWIGEIYPRSDNTYYNEKFKDKATLTADKSSSTAYMELRSLTSEDSAVYFCARSKGSGTGDYWGQGTTVTVSS VL: DIQMTQSPASLSASVGETVTITCRASENIYIYLAWYQQKQGKTPQLLVYNGKMLAENVPSRFSGSGSGTQFSLKINSLQPEDFGSYYCQHHYGSPPAFGAGTKLELK | 1170 | 1740 | 866 | 1610 | no binding | 1970 | 4800 | > 2 | 1.4 nM and 1.8 nM | 3.3e-05 s⁻¹ and 4.8e-05 s⁻¹ | 23000 M⁻¹ s⁻¹ and 26000 M⁻¹ s⁻¹ | 59300 | 11.4 | 37 | 26.6 | 10800 | 64500 | 2180
4 | anti-TMEM106B antibody TM-29 (antibody, V domains shown) VH: QVQLRQSGAELVRPGASVKLSCKASGYTFTDYYINWVKQRPGQGLEWIARIYPGSGYTYYNEKFKGKATLTAEGSSNTAYMQLSSLTSEDSAVYFCANHYTNPFAYWGQGTLVTVSA VL: DIVMTQAAFSNPVTLGTSASISCRSSKSLLHYNGITYLYWYLQKPGQSPQLLIYQMSNLASGVPDRFSSSGSGTDFTLRISRVEAEDVGVYYCAQNLELPYTFGGGTKLEIK | 1410 | 1650 | 730 | 1480 | no binding | 2480 | 4200 | > 2 | 3.5 nM and 5.2 nM | 6.5e-05 s⁻¹ and 7.8e-05 s⁻¹ | 18000 M⁻¹ s⁻¹ and 15000 M⁻¹ s⁻¹ | 61200 | 35.1 | 66 | 44.6 | 24400 | 63300 | 4050
5 | anti-TMEM106B antibody TM-9 (antibody, V domains shown) VH: EVQLVESGGDLVKPGGSLKLSCVASGFTFSGYGMSWVRQTPDKRLEWVATISSGSFYIYYPDSVKGRLTVSRDNAKNTLYLQMSSLKSEDTAIYYCARQNFYYGCEDYWGQGTTLTVSS VL: DIVMTQAAFSNPVTLGTSASISCRSSKSLLHSNGITYLYWYLQKPGQSPQLLIYQMSNLASGVPNRFSSSGSGTDFTLRISRVEAEDVGVYYCAQNLELPWTFGGGTKLEIK | 1990 | 2540 | 1540 | 2710 | no binding | 4880 | 7090 | > 2 | 4.2 nM and 5.2 nM | 8.3e-05 s⁻¹ and 8.4e-05 s⁻¹ | 20000 M⁻¹ s⁻¹ and 16000 M⁻¹ s⁻¹ | 56400 | 10.7 | 22.3 | 8.52 | 28300 | 62100 | 3940
6 | anti-TMEM106B antibody TM-3 (antibody, V domains shown) VH: QVTLKESGPGIVQPSQTLSLTCSFSGFSLNTLGRGVGWIRQPSGKGLEWLAKIWWNDDKFYYPALKSRLTISKDTSKNQIFLKIANVDTADSATYYCARIAGGTGAAYWGQGTTLTVSS VL: DIVMTQAAFSNPVTLGTSASISCRSSKSLLHSNGITYLYWYLQKPGQSPQLLISQMSSLASGVPDRFSSGGSGTDFTLRISRVEAEDVGVFYCAQNLELPWTFGGGTKLELK | 1800 | 2690 | 1080 | 1980 | no binding | 4840 | 7670 | > 2 | 1.7 nM and 2.1 nM | 3.8e-05 s⁻¹ and 4.8e-05 s⁻¹ | 22000 M⁻¹ s⁻¹ and 23000 M⁻¹ s⁻¹ | 82300 | 24.4 | 40.5 | 29.2 | 48700 | 89100 | 7700
7 | anti-TMEM106B antibody TM-13 (antibody, V domains shown) VH: QVQLQQSGAELVKPGASVKMSCKASGYTFTTFPIEWMKQSHGKGLEWIGNFHPYNDDTKYNEKFKGKATLTVDKSSSTVYLDLSRLTSDDSAVYYCARYFYGGMDYWGQGTSVTVSS VL: DIQMTQSPASLSVSVGETVTITCRASENIYSSLGWYQQKQGESPQLLVFAATNLADGVPSRFSGSGSGTQYSLKINSLQSEDFGTYYCQHLWSIPWTFGGGTRLEIK | 1260 | 1380 | 787 | 927 | no binding | 1950 | 3890 | > 2 | 2.4 nM and 2 nM | 7e-05 s⁻¹ and 8.4e-05 s⁻¹ | 29000 M⁻¹ s⁻¹ and 42000 M⁻¹ s⁻¹ | 67500 | 36.7 | 55.5 | 52.7 | 19100 | 67100 | 2900
